This is an account of results in patent US20190233522A1 (Genmab, published 2019).

The target of experiment [1] is T1, AXL (human, UniProt P30530 26-447, limits assumed).
T1 construct: neither the species nor the construct used is stated there; also called human AXL protein; UFO
Briefly: not described.

The target of experiment [2] is T1, AXL. Nature of the experiment: competition with Gas6; assay not described.

T1 sequence (P30530 26-447 limits assumed): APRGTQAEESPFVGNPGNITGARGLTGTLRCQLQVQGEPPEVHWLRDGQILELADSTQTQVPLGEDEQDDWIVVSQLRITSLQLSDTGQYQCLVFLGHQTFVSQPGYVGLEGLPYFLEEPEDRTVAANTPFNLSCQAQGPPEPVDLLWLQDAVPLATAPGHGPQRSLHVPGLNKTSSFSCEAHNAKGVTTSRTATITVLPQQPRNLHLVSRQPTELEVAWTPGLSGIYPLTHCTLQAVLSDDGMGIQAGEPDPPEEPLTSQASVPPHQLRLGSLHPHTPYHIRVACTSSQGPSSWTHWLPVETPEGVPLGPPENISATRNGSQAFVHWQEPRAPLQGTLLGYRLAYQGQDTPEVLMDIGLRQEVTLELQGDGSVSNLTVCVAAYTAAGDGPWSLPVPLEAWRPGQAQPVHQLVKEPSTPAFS

B1: IgG1-AXL-148-vcMMAE (antibody, V domains shown)
VH: EVQLLESGGGLVQPGGSLRLSCAASGFTFSSYAMTWVRQAPGKGLEWVSAISISGGSTFYADSVKGRFTISRDNSKNTLYLQMNSLRAEDTAVYYCRGYSGYVYDAFDFWGQGTMVTVSS
VL: DIQMTQSPSSLSASVGDRVTITCRASQGISNWLAWYQQKPEKAPKSLIYAASSLQSGVPSRFSGSGSGTDFTLTISSLQPEDFATYYCQQYNSYPLTFGGGTKVEIK
modifications: vcMMAE alkylated to cysteines of the reduced antibody (positions not given)
notes: Antibody-drug conjugate of antibody 148 with vcMMAE; IgG1 by name; also called IgG1-1021-148-MMAE; IgG1-AXL-148-MMAE
With B1, in the experiment with AXL [1], the binding result is reported as “binds”.

B2: IgG1-AXL-107-vcMMAE (antibody, V domains shown)
VH: EVQLLESGGGLVQPGGSLRLSCAASGFTFSSYAMNWVRQAPGKGLEWVSTTSGSGASTYYADSVKGRFTISRDNSKNTLYLQMNSLRAEDTAVYYCAKIWIAFDIWGQGTMVTVSS
VL: not shown
notes: also called HuMax-AXL-ADC; IgG1-1021-107-MMAE
As to B2, the binding result with AXL [1] is “binds”.

B3: IgG1-AXL-061-vcMMAE (antibody, V domains shown)
VH: QVQLVQSGAEVKKPGASVKVSCKASGYAFTGYGISWVRQAPGQGLEWIGWISAYNGNTNYVQNLQDRVTMTTDTSTSTAYMELRSLRSDDTAVYYCARDHISMLRGIIIRNYWGQGTLVTVSS
VL: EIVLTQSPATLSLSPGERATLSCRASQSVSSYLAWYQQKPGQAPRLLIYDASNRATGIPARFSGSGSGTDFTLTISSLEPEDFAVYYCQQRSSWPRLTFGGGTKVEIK
modifications: vcMMAE alkylated to cysteines of the reduced antibody (positions not given)
notes: Antibody-drug conjugate of antibody 061 with vcMMAE; IgG1 by name
As to B3, in the experiment with AXL [1], the binding result is “binds”.

B4: IgG1-AXL-061 (antibody, V domains shown)
VH: QVQLVQSGAEVKKPGASVKVSCKASGYAFTGYGISWVRQAPGQGLEWIGWISAYNGNTNYVQNLQDRVTMTTDTSTSTAYMELRSLRSDDTAVYYCARDHISMLRGIIIRNYWGQGTLVTVSS
VL: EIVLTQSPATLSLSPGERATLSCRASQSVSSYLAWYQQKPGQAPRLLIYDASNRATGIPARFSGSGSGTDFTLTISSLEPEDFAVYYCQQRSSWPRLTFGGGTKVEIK
notes: IgG1 by name; Unconjugated antibody
B4: in the experiment with AXL [2], the binding result is on record as “binds”.
